The assay deals with T1, Soli E2 (Solenopsis invicta).
T1 sequence: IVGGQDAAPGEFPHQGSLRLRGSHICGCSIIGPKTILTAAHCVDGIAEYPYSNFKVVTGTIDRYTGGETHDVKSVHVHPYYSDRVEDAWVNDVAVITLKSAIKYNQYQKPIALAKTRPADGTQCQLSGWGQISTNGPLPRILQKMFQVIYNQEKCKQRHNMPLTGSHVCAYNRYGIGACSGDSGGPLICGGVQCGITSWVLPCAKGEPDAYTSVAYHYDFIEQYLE
As to the kind of experiment: cell-based or functional assay.
Sequence of α-1-Proteinase Inhibitor (P01009 25-418 limits assumed): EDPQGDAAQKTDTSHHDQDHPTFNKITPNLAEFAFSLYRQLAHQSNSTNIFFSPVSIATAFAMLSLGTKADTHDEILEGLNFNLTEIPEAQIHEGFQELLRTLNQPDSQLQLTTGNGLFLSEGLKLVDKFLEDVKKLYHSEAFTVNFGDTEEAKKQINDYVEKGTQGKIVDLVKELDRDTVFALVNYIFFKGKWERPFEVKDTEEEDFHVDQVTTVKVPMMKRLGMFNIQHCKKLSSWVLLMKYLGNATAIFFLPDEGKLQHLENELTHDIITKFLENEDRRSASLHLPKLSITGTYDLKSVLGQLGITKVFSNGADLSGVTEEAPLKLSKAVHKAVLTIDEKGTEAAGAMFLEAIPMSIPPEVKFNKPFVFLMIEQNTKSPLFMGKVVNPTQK
As for Boc-Ala-Pro-Val-^p(OPh)2 (peptide), the Max Inhibition Rate/IC50 amounted to 666.
Still for that read-out and setting: to Boc-Val-Pro Val-^p(OPh)2 (peptide) belongs 735.
Canadian Goose OM: the IC50 (commonly the concentration that inhibits the measured activity by half) came out at 7.68 nM.
Still for that read-out and setting: the result for “Canadian Goose OM Domain III (from UniProt P68393 1-54)” reads 27.3 nM; that for Domestic Goose OM, 6.03 nM.
Same read-out and setting: to “Domestic Goose OM Domain III (from UniProt P68389 1-54)” belongs 5.58 nM; to Eglin C (from UniProt P01051 1-70), 1.89 nM.
On the same count and under the same terms, to Potato Inhibitor I belongs 9.13 nM; to Potato Inhibitor II, 10.1 nM.
Z-Ala-Val-^p(OPh)2 (peptide) had a Max Inhibition Rate/IC50 of 27.2.
As for Z-Gly-Leu-Phe-CK (peptide), the Max Inhibition Rate/IC50 is less than 0.1.
Still for that read-out and setting: the result for Z-Leu-Phe-^p(OPh)2 (peptide) reads less than 0.1; that for Z-Phe-Leu-Phe-^p(OPh)2 (peptide), less than 0.1; that for Z-Phe-Phe-^p(OPh)2 (peptide), less than 0.1.
Same read-out and setting: to Z-Pro-Val-^p(OPh)2 (peptide) belongs 36.6.
Still for that read-out and setting: the result for Z-Val-Val-^p(OPh)2 (peptide) reads 76.8.
“α-1-Proteinase Inhibitor (from UniProt P01009 25-418)”: the half-maximal inhibitory concentration (IC50) stood at 0.604 nM.

The values above are taken from patent publication US6399759.
